# Source: paper PMC6041257
# B1: GLI1 (transfected, wild type) [human] / SUFU (transfected, HEK293T) [not stated] (parent)
# chain 1: MFNSMTPPPISSYGEPCCLRPLPSQGAPSVGTEGLSGPPFCHQANLMSGPHSYGPARETNSCTEGPLFSSPRSAVKLTKKRALSISPLSDASLDLQTVIRTSPSSLVAFINSRCTSPGGSYGHLSIGTMSPSLGFPAQMNHQKGPSPSFGVQPCGPHDSARGGMIPHPQSRGPFPTCQLKSELDMLVGKCREEPLEGDMSSPNSTGIQDPLLGMLDGREDLEREEKREPESVYETDCRWDGCSQEFDSQEQLVHHINSEHIHGERKEFVCHWGGCSRELRPFKAQYMLVVHMRRHTGEKPHKCTFEGCRKSYSRLENLKTHLRSHTGEKPYMCEHEGCSKAFSNASDRAKHQNRTHSNEKPYVCKLPGCTKRYTDPSSLRKHVKTVHGPDAHVTKRHRGDGPLPRAPSISTVEPKREREGGPIREESRLTVPEGAMKPQPSPGAQSSCSSDHSPAGSAANTDSGVEMTGNAGGSTEDLSSLDEGPCIAGTGLSTLRRLENLRLDQLHQLRPIGTRGLKLPSLSHTGTTVSRRVGPPVSLERRSSSSSSISSAYTVSRRSSLASPFPPGSPPENGASSLPGLMPAQHYLLRARYASARGGGTSPTAASSLDRIGGLPMPPWRSRAEYPGYNPNAGVTRRASDPAQAADRPAPARVQRFKSLGCVHTPPTVAGGGQNFDPYLPTSVYSPQPPSITENAAMDARGLQEEPEVGTSMVGSGLNPYMDFPPTDTLGYGGPEGAAAEPYGARGPGSLPLGPGPPTNYGPNPCPQQASYPDPTQETWGEFPSHSGLYPGPKALGGTYSQCPRLEHYGQVQVKPEQGCPVGSDSTGLAPCLNAHPSEGPPHPQPLFSHYPQPSPPQYLQSGPYTQPPPDYLPSEPRPCLDFDSPTHSTGQLKAQLVCNYVQSQQELLWEGGGREDAPAQEPSYQSPKFLGGSQVSPSRAKAPVNTYGPGFGPNLPNHKSGSYPTPSPCHENFVVGANRASHRAAAPPRLLPPLPTCYGPLKVGGTNPSCGHPEVGRLGGGPALYPPPEGQVCNPLDSLDLDNTQLDFVAILDEPQGLSPPPSHDQRGSSGHTPPPSGPPNMAVGNMSVLLRSLPGETEFLNSSA
# chain 2: MAELRPSGAPGPTAPPAPGPTAPPAFASLFPPGLHAIYGECRRLYPDQPNPLQVTAIVKYWLGGPDPLDYVSMYRNVGSPSANIPEHWHYISFGLSDLYGDNRVHEFTGTDGPSGFGFELTFRLKRETGESAPPTWPAELMQGLARYVFQSENTFCSGDHVSWHSPLDNSESRIQHMLLTEDPQMQPVQTPFGVVTFLQIVGVCTEELHSAQQWNGQGILELLRTVPIAGGPWLITDMRRGETIFEIDPHLQERVDKGIETDGSNLSGVSAKCAWDDLSRPPEDDEDSRSICIGTQPRRLSGKDTEQIRETLRRGLEINSKPVLPPINPQRQNGLAHDRAPSRKDSLESDSSTAIIPHELIRTRQLESVHLKFNQESGALIPLCLRGRLLHGRHFTYKSITGDMAITFVSTGVEGAFATEEHPYAAHGPWLQILLTEEFVEKMLEDLEDLTSPEEFKLPKEYSWPEKKLKVSILPDVVFDSPLH
# Variants of: B1
# Test: co-immunoprecipitation (IP: HA (SUFU-HA), IB: Flag (GLI1-Flag))
# Details: with SUFU (transfected, HEK293T); HEK293T cells; SUFU-HA + GLI1-Flag + MEKK3-Flag co-expressed; parent: 3
row,screen value,Variant
1,3.9,chain 1 S201D S204D S243D S968D T1074D S1078D

# Same assay, conditions: with SUFU (transfected, HEK293T); HEK293T cells; SUFU-HA + GLI1-Flag + Vector (no MEKK3); parent: 1
row,ratio to parent,Variant
1,3,chain 1 S201D S204D S243D S968D T1074D S1078D
